# Measured values taken from patent US20100239571A1 (Seagen, published 2010).
# T1: CD30 surface antigen expressed on Karpas-299 (human, UniProt P28908 19-595)
# T1 construct: whole, on cells; also called human CD30
# T1 sequence (looked up): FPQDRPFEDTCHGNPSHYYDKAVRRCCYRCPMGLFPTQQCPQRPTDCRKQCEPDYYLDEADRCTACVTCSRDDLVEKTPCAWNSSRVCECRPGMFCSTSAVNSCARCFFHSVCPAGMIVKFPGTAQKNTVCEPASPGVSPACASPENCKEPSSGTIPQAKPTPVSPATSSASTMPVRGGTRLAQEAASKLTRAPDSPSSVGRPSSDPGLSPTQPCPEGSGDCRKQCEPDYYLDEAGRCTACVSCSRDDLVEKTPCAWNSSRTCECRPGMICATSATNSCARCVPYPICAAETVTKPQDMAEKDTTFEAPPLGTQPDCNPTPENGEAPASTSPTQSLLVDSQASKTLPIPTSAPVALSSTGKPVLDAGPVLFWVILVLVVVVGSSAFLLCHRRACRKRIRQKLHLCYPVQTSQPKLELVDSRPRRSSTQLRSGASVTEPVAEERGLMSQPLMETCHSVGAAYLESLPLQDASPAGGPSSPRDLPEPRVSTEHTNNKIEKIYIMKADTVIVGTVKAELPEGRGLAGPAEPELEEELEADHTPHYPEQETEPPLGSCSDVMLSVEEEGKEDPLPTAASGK
# Target: T1, CD30 surface antigen expressed on …
# Test: competition binding on Karpas 299 cells against europium-labeled cAC10 (control competitor)
# Method: (§1) The variants were tested for binding to CD30 surface antigen expressed on Karpas-299, an anaplastic large cell lymphoma cell line, using a competition binding assay in which cAC10, expressed in CHO cells, was europium labeled (see, e.g., Law et al., Cancer Research 65:8331-38 (2005)). The results, shown below in the second column of Table 6, indicate that all of the variants were able to compete with cAC10 for binding to CD30. Thus, the variants retained antigen binding activity.
row,Binder,EC50 [nM]
1,"cAC10 (CHO) (antibody, V domains shown, Human-murine chimeric AC10 expressed in CHO cells; also called chimeric AC10; chimeric monoclonal antibody AC10) VH: QVQLVQSGAEVVKPGASVKVSCKASGYTFTDYYITWVRQAPGQGLEWMGWIYPGSGNTKYNEKFKGKATLTVDTSSSTAFMQLSSLTSEDTAVYFCANYGNYWFAYWGQGTQVTVSA VL: DIVLTQSPASLAVSLGQRATISCKASQSVDFDGDSYMNWYQQKPGQPPKVLIYAASNLESGIPARFSGSGSGTDFTLNIHPVEEEDAATYYCQQSNEDPWTFGGGTKLEIK",2.9

# Target: T1, CD30 surface antigen expressed on …
# Test: competition binding on Karpas 299 cells against europium-labeled cAC10
# Method: as §1
row,Binder,EC50 [nM]
1,"hAC10 HALA (antibody, human IgG1, kappa, V domains shown, The name HALA is read as heavy variant A plus light variant A; also called humanized AC10 variant HALA; hVH A + hVL A) VH: QVQLVQSGAEVKKPGASVKVSCKASGYTFTDYYITWVRQAPGQGLEWMGWIYPGSGNTKYNEKFKGRVTMTVDTSISTAYMELSRLRSDDTAVYFCANYGNYWFAYWGQGTLVTVSS VL: DIVMTQSPDSLAVSLGERATINCKASQSVDFDGDSYMNWYQQKPGQPPKLLIYAASNLESGVPDRFSGSGSGTDFTLTISSLQAEDVAVYYCQQSNEDPWTFGQGTKVEIKR",6.61
2,"hAC10 HALC (antibody, human IgG1, kappa, V domains shown, Human IgG1 / kappa; also called humanized AC10 variant HALC; hVH A + hVL C) VH: QVQLVQSGAEVKKPGASVKVSCKASGYTFTDYYITWVRQAPGQGLEWMGWIYPGSGNTKYNEKFKGRVTMTVDTSISTAYMELSRLRSDDTAVYFCANYGNYWFAYWGQGTLVTVSS VL: DIVMTQSPDSLAVSLGERATINCKASQSVDFDGDSYLNWYQQKPGQPPKLLIYAASNLESGVPDRFSGSGSGTDFTLTISSLQAEDVAVYYCQQSNEDPWTFGQGTKVEIKR",3.53
3,"hAC10 HALD (antibody, human IgG1, kappa, V domains shown, Human IgG1 / kappa; also called humanized AC10 variant HALD; hVH A + hVL D) VH: QVQLVQSGAEVKKPGASVKVSCKASGYTFTDYYITWVRQAPGQGLEWMGWIYPGSGNTKYNEKFKGRVTMTVDTSISTAYMELSRLRSDDTAVYFCANYGNYWFAYWGQGTLVTVSS VL: DIVMTQSPDSLAVSLGERATINCKSSQSVDFDGDSYLNWYQQKPGQPPKLLIYAASNLESGVPDRFSGSGSGTDFTLTISSLQAEDVAVYYCQQSNEDPWTFGQGTKVEIKR",6
4,"hAC10 HDLA (antibody, human IgG1, kappa, V domains shown, Human IgG1 / kappa; also called humanized AC10 variant HDLA; antibody HDLA) VH: QVQLVQSGAEVKKPGASVKVSCKASGYTFTDYYITWVRQAPGQGLEWMGWIYPGSGNTKYNEKFKGRVTMTRDTSISTAYMELSRLRSDDTAVYYCANYGNYWFAYWGQGTLVTVSS VL: DIVMTQSPDSLAVSLGERATINCKASQSVDFDGDSYMNWYQQKPGQPPKLLIYAASNLESGVPDRFSGSGSGTDFTLTISSLQAEDVAVYYCQQSNEDPWTFGQGTKVEIKR",3.1
5,"hAC10 HDLD (antibody, human IgG1, kappa, V domains shown, Human IgG1 / kappa; also called humanized AC10 variant HDLD; hVH D + hVL D) VH: QVQLVQSGAEVKKPGASVKVSCKASGYTFTDYYITWVRQAPGQGLEWMGWIYPGSGNTKYNEKFKGRVTMTRDTSISTAYMELSRLRSDDTAVYYCANYGNYWFAYWGQGTLVTVSS VL: DIVMTQSPDSLAVSLGERATINCKSSQSVDFDGDSYLNWYQQKPGQPPKLLIYAASNLESGVPDRFSGSGSGTDFTLTISSLQAEDVAVYYCQQSNEDPWTFGQGTKVEIKR",2.25
6,"hAC10 HBLA (antibody, human IgG1, kappa, V domains shown, Human IgG1 / kappa; also called humanized AC10 variant HBLA; hVH B + hVL A) VH: QVQLVQSGAEVKKPGASVKVSCKASGYTFTDYYITWVRQAPGQGLEWMGWIYPGSGNTKYNEKFKGRVTMTRDTSISTAYMELSRLRSDDTAVYFCANYGNYWFAYWGQGTLVTVSS VL: DIVMTQSPDSLAVSLGERATINCKASQSVDFDGDSYMNWYQQKPGQPPKLLIYAASNLESGVPDRFSGSGSGTDFTLTISSLQAEDVAVYYCQQSNEDPWTFGQGTKVEIKR",3.31
7,"hAC10 HALB (antibody, human IgG1, kappa, V domains shown, Human IgG1 / kappa; also called humanized AC10 variant HALB; hVH A + hVL B) VH: QVQLVQSGAEVKKPGASVKVSCKASGYTFTDYYITWVRQAPGQGLEWMGWIYPGSGNTKYNEKFKGRVTMTVDTSISTAYMELSRLRSDDTAVYFCANYGNYWFAYWGQGTLVTVSS VL: DIVMTQSPDSLAVSLGERATINCKSSQSVDFDGDSYMNWYQQKPGQPPKLLIYAASNLESGVPDRFSGSGSGTDFTLTISSLQAEDVAVYYCQQSNEDPWTFGQGTKVEIKR",5.9
8,"hAC10 HCLA (antibody, human IgG1, kappa, V domains shown, Human IgG1 / kappa; also called humanized AC10 variant HCLA; hVH C + hVL A) VH: QVQLVQSGAEVKKPGASVKVSCKASGYTFTDYYITWVRQAPGQGLEWMGWIYPGSGNTKYNEKFKGRVTMTVDTSISTAYMELSRLRSDDTAVYYCANYGNYWFAYWGQGTLVTVSS VL: DIVMTQSPDSLAVSLGERATINCKASQSVDFDGDSYMNWYQQKPGQPPKLLIYAASNLESGVPDRFSGSGSGTDFTLTISSLQAEDVAVYYCQQSNEDPWTFGQGTKVEIKR",3.61
